Measurements as given in publication PMC4620744.
Values belong to the substance of their own block, whether it stands above or below them.

Legend:
[1] = target: H2A-H2B^30-130 (S. cerevisiae) (UniProt P04911); test: ITC
[2] = target: full-length H2A-H2B (S. cerevisiae) (UniProt P04911); test: fluorescence polarisation
[3] = target: H2A-H2B^30-130 bearing H2B Y45A (S. cerevisiae) (UniProt P04911); test: ITC
[4] = target: H2A-H2B^30-130 bearing H2B M62A (S. cerevisiae) (UniProt P04911); test: ITC
[5] = target: H2A-H2B^30-130 bearing H2B Y45A and M62A (S. cerevisiae) (UniProt P04911); test: ITC
[6] = target: full-length H2A-H2B (S. cerevisiae) (UniProt P04911); test: ITC
[7] = target: full-length FACT (Spt16-Pob3 heterodimer) (S. cerevisiae) (UniProt P32558); test: native gel or EMSA
[8] = target: Fluorescein-Spt16 MBD (Spt16^965-990) (S. cerevisiae) (UniProt P32558); test: fluorescence polarisation
[9] = target: full-length FACT (Spt16-Pob3 heterodimer) (S. cerevisiae) (UniProt P32558); test: ITC

- Kd [1]: 35000 nM
Substance: Pob3 D509A (from UniProt Q04636 505-529) (peptide)

- IC50 [2]: 15700 nM
- Ki [2]: 1300 nM
- fold decrease in affinity against H2A-H2B^30-130 [3]: 12 fold
- fold decrease in affinity against H2A-H2B^30-130 [4]: 9 fold
- fold decrease in affinity against H2A-H2B^30-130 [5]: 41 fold
Substance: Pob3-MBD (Pob3^505-529) (from UniProt Q04636 505-529) (peptide)

- fold decrease in binding against the unmutated peptide [1]: 38 fold
Substance: Pob3-MBD DED509-511AAA (from UniProt Q04636 505-529) (peptide)

- fold decrease in binding against the unmutated peptide [1]: 17 fold
Substance: Pob3-MBD DNDAD517-521AAAAA (from UniProt Q04636 505-529) (peptide)

- fold decrease in binding against the unmutated peptide [1]: > 100 fold
Substance: Pob3-MBD F512A (from UniProt Q04636 505-529) (peptide)

- Kd [1]: 5000 nM
Substance: Spt16 E968A (from UniProt P32558 965-990) (peptide)

- Kd [6]: 800 nM
- stoichiometry N [6]: 1
Substance: Spt16-C (domain or fragment)

- IC50 [2]: 21100 nM
- Ki [2]: 2300 nM
Substance: Spt16-MBD (Spt16^965-990) (from UniProt P32558 965-990) (peptide)

- fold decrease in affinity against the unmutated peptide [1]: 10 fold
Substance: Spt16-MBD DES981-983AAA (from UniProt P32558 965-990) (peptide)

- fold decrease in affinity against the unmutated peptide [1]: 15 fold
Substance: Spt16-MBD EDEE987-990AAAA (from UniProt P32558 965-990) (peptide)

- fold decrease in affinity against the unmutated peptide [1]: 20 fold
Substance: Spt16-MBD SEDD975-978AAAA (from UniProt P32558 965-990) (peptide)

- fold decrease in affinity against the unmutated peptide [1]: 12 fold
Substance: Spt16-MBD SEEE965-968AAAA (from UniProt P32558 965-990) (peptide)

- fold decrease in binding against the unmutated peptide [1]: 48 fold
Substance: Spt16-MBD Y972A (from UniProt P32558 965-990) (peptide)

- fold decrease in binding against H2A-H2B^30-130 [3]: 25 fold
- fold decrease in binding against H2A-H2B^30-130 [4]: 12 fold
- fold decrease in binding against H2A-H2B^30-130 [5]: 42 fold
Substance: Spt16^958-990 (from UniProt P32558 958-990) (peptide)

- apparent KD of one of two EMSA binding events [7]: 100 nM
- apparent KD of the other of two EMSA binding events [7]: 150 nM
- stoichiometry N [7]: 2
- Kd [8]: 2300 nM
- KD of one of two independent binding sites [9]: 340 nM
- KD of the other of two independent binding sites [9]: 1620 nM
- stoichiometry N [9]: 2
Substance: full-length H2A-H2B (from UniProt P04911 1-132; P02293 1-131) (complex)
